Results taken from PMC7419741 (QRB Discovery, 2020).

Biological target: T1, IL8
T1 construct: interleukin 8 (CXCL8), ligand of CXCR2
Experiment: MST; 5 nM NT647-labelled receptor-Fc against a gradient of ligand; 1x PBS, 10 mM DTT, arginine at different concentrations; Monolith NT.115 pico, 25°C; data from the early T-Jump period; Kd model (law of mass action)
Conditions: both partners purified

- Kd: 60.3 ± 21 nM
B1: CXCR2^QTY–Fc (Fc fusion)
chain: MEDFNMESDSFEDFWKGEDLSNYSYSSTLPPFLLDAAPCEPESLEINKYYTTTTYAQTYQQSQQGNSQTMQTTQYSRVGRSVTDTYQQNQAQADQQYAQTQPTWAASKVNGWIFGTFLCKTTSQQKETNYYSGTQQQACTSTDRYLAIVHATRTLTQKRYLVKYTCQSTWGQSQQQAQPTQQYRRTVYSSNVSPACYEDMGNNTANWRMQQRTQPQSYGYTTPQQTMQYCYGFTLRTLFKAHMGQKHRAMRTTYATTQTYQQCWQPYNQTQQADTLMRTQVIQETCERRNHIDRAQDATETQGTQHSCQNPQTYAFIGQKFRHGLLKILAIHGLISKDSLPKDSRPSFVGSSSGHTSTTL
modifications: NT647 fluorescent dye (Monolith NT protein labelling kit RED-NHS)
